Source: patent US6887705B1, “Tyrosine phosphorylated cleavage furrow-associated proteins (PSTPIPs)” (Genentech, Inc., priority 1997, dated 2005)
Entries after “also recorded” stand apart in the source; their conditions may differ. Like-named read-outs stand apart in the source and are kept apart here.

B1: PSTPIP: murine PST Phosphatase Interacting Protein, 415 residues (SEQ ID NO:1) (protein)
chain: MMAQLQFRDAFWCRDFTAHTGYEVLLQRLLDGRKMCKDVEELLRQRAQAEERYGKELVQIARKAGGQTEMNSLRTSFDSLKQQTENVGSAHIQLALALREELRSLEEFRERQKEQRKKYEAIMDRVQKSKLSLYKKTMESKKAYDQKCRDADDAEQAFERVSANGHQKQVEKSQNKAKQCKESATEAERVYRQNIEQLERARTEWEQEHRTTCEAFQLQEFDRLTILRNALWVHCNQLSMQCVKDDELYEEVRLTLEGCDVEGDINGFIQSKSTGREPPAPVPYQNYYDREVTPLIGSPSIQPSCGVIKRFSGLLHGSPKTTPSAPAASTETLTPTPERNELVYASIEVQATQGNLNSSAQDYRALYDYTAQNSDELDISAGDILAVILEGEDGWWTVERNGQRGFVPGSYLEKL
modifications: Mus Musculus
B2: W232A mutant of PST PIP, C-terminal FLAG (other)
chain: MMAQLQFRDAFWCRDFTAHTGYEVLLQRLLDGRKMCKDVEELLRQRAQAEERYGKELVQIARKAGGQTEMNSLRTSFDSLKQQTENVGSAHIQLALALREELRSLEEFRERQKEQRKKYEAIMDRVQKSKLSLYKKTMESKKAYDQKCRDADDAEQAFERVSANGHQKQVEKSQNKAKQCKESATEAERVYRQNIEQLERARTEWEQEHRTTCEAFQLQEFDRLTILRNALAVHCNQLSMQCVKDDELYEEVRLTLEGCDVEGDINGFIQSKSTGREPPAPVPYQNYYDREVTPLIGSPSIQPSCGVIKRFSGLLHGSPKTTPSAPAASTETLTPTPERNELVYASIEVQATQGNLNSSAQDYRALYDYTAQNSDELDISAGDILAVILEGEDGWWTVERNGQRGFVPGSYLEKLDYKDDDDK
notes: In vitro translated or expressed in COS cells; also called W232A PST PIP; PST PIP with an alanine replacement mutation at tryptophan232

What was measured:
[1] = tested on: PSTPIP tyrosine phosphorylation; assay: Tyrosine phosphorylation of PSTPIP in COS cells co-transfected with V-src; type: cell-based; settings: COS cells
Experimental: Baf3 cells were lysed in 1% Triton, 50 mM HEPES. 10% glycerol and 5 mM EDTA containing 1 μg/ml aprotinin, PMSF, leupeptin and pepstatin were 1 mM Sodium Vanadate and 10 mM Iodoacetic acid. Cells were treated with 0.1 mM Pervanadate for 4 hours before lysis. Immunoprecipitations were performed in the vanadate-containing lysis buffer using 1 μg/ml anti-PSTPIP polyclonal antibody and 400 μg of lysate protein at 4° C. overnight. Western blots were performed using 1 μg/ml affinity purified anti-PSTPIP or 1:5000 dilution of commercial 4G10 anti-phosphotyrosine monoclonal (Upstate Biotech). Signal was detected by HRPO-ECL reagents (Pierce). The C221-S mutant was as previously described (Cheng et al., (1996) supra). The PTP HSCF D197-A mutant was generated using PCR. Mutagenesis primer D197A.F ([…]) (SEQ ID NO:24), corresponding to nucleotide 591, and primer D197A.R ([…]) (SEQ ID NO:25) which corresponds to the stop codon, were used in PCR to generate a fragment that could be cut with Mscl and XbaI. pRK.HA.38 WT, a plasmid which encoded the wild type enzyme under the control of the cytomegalovirus promoter (Cheng et al., (1996) supra), was digested with Clal and Mscl and the resulting 600 bp fragment was ligated with the Mscl-Xbal PCR fragment into the Clal and Xbal sites of the pRK.tkneo. A plasmid encoding the V-src oncogene under the control of the SV40 early promoter was the kind gift of Dr. Art Levinson (CEO-Genetech, Inc.). NIH 3T3 cells and the COS-7 cells were cultured in high glucose DMEM supplemented with 10% FBS, 2 mM L-Glutamine, 10 mM HEPES pH 7.2 and pen-strep.
(§1) COS-7 cells were transfected by electroporation. Briefly, 1.5×10^6 COS-7 cells were mixed with 24 μg total DNA in PBS and electroporated at 960 μF, […] (Bio-Rad™ Gene Pulsar™). Following electroporation, cells were seeded in 10 cm dishes and incubated for 3 days. 10-cm dishes of transfected COS cells were washed twice with ice-cold PBS, and lysed in 1 ml of M-RIPA (50 mM Tris 7.4, 1% NP40, 0.25% DOC, 150 mM NaCl, 1 mM sodium ortho-vanadate, 1 mM NaF plus Complete™ Protease Inhibitors (Boehringer Mannheim)). Lysates were incubated for 15 minutes with 100 μl UltraLink Immobilized Protein A/G™ (Pierce) at 4° C., followed by centrifugation for 5 minutes. Supernatants were collected and stored at −70° C. or directly immunoprecipitated. 5 μg of M2 or 12CA5 was added to 500 μl of lysate and incubated overnight at 4° C. Ultralink Protein A/G™ was added and incubation continued for 2 hours at 4° C. The immune complexes were washed 3 times with M-RIPA. The proteins were subjected to SDS-PAGE and transferred to nitrocellulose in 1X Transfer Buffer™ (Novex). Immunoblots were blocked overnight at 4° C. in 3% milk/PBS. To detect Flag-tagged PIP, blots were incubated with 10 μg/ml Bio-M2 (Biotinylated anti-FLAG monoclonal Ab, KODAK) followed by incubation in 10 μg/ml streptavidin-HRP (UBI). To detect HA-tagged PTPhscf, blots were incubated in anti-(HA)-peroxidase (Boehringer Mannheim) as per manufacturer's instructions. To detect phosphotyrosine, blots were incubated in HRP-conjugated 4G10 (anti-phosphotyrosine monoclonal, UBI) as per manufacture's instructions.
COS cells were transfected with a constant amount of either the wild type of W232A mutant of PST PIP and cotransfected with increasing amounts of a plasmid encoding the v-Src tyrosine kinase (Spencer et al, (1997), supra). Plasmid concentrations were equalized with an empty vector containing the CMV promoter. After 48 hours, lysates were prepare and immunoprecipitated with anti-FLAG monoclonal antibody. Precipitates were run on SDS polyacrylamide gels, blotted, and probed with either anti-FLAG antibody or anti-phosphotyrosine antibody as previously described (Spencer et al, (1997), supra). Bound antibodies were visualized using enhanced chemiluminescent reagents.

[2] = tested on: CHO cells; assay: Confocal microscopy of PST PIP forms expressed in CHO cells; type: cell-based, Chinese hamster; settings: transfected CHO cells
Experimental: Confocal microscopy was performed as previously described (Spencer et al, (1997), supra). Briefly, CHO cells in chamber slides were transfected using Lipofectamine and the indicated plasmids. 48 hours later, cells were fixed in formaldehyde and stained with an anti-FLAG epitope specific antibody (Kodak) and Fluorescein-Phalloidin (Molecular Probes). Anti-Flag stained cells were washed and stained with Cy3-conjugated sheep anti-mouse IgG. Stained cells were observed using Molecular Dynamics Confocal Microscope™ (2001) and analyzed with ImageSpace™ software (Molecular Dynamics).

[3] = tested on: PST PIP - PTP HSCF association; assay: Coprecipitation of PST PIP and PTP HSCF from co-transfected COS cells; type: cell-based
Experimental: as §1
In vitro binding analyses between various PTP HSCF and PST PIP constructs were performed as previously described (Spencer et al, (1997), supra). Briefly, plasmids were transcribed and translated in vitro using the TnT Rabbit Reticulocyte Lysate System (Promega). Samples were diluted in 50 mM HEPES, pH 7.2, 1% triton X-100, 10% glycerol, 100 mM NaCl, and 2 μg/ml each of leupeptin, pepstatin, aprotinin and PMSF (lysis buffer). Samples were than reacted with GST fusion proteins at various concentrations, and the bound proteins were centrifuged using glutathione-sepharose beads and analyzed on SDS polyacrylamide gels. C-terminally-derived peptide inhibition studies were performed by incubating the GST fusion protein binding reactions in the presence of 10 μg/ml of the indicated peptides. Peptides were produced by FMOC-protected amino acids as previously described (Spencer et al, (1997), supra). In vivo interactions between various forms of PTP HSCF and PST PIP were also performed as previously described (Spencer et al, (1997), supra). Briefly, COS cells were transfected with various constructs, and after 48 hours, lysates were prepared and immunoprecipitated with antibodies to either the FLAG epitope contained at the C-terminus of PST PIP or an HA epitope contained at the N-terminus of PTP HSCF. The resultant blots were probed with anti-FLAG to detect PST PIP, anti-HA to detect PTP HSCF or anti-phosphotyrosine to detect levels of this modified amino acid in each protein.

Molecule	tyrosine phosphorylation of PST PIP forms in the presence of dominant negative PTP HSCF C-S (substrate trapping) ([1]; listed as PST PIP wt)	tyrosine phosphorylation of PST PIP forms in the presence of dominant negative PTP HSCF C-S (substrate trapping) ([1]; listed as wild type PST PIP)	cellular localization of PST PIP forms (assay for correct folding) [2]	in vivo association (coprecipitation) of PST PIP and PTP HSCF ([3]; listed as PST PIP wt)	in vivo association (coprecipitation) of PST PIP and PTP HSCF ([3]; listed as wild type PST PIP)	efficiency of tyrosine phosphorylation in the presence of v-Src versus wild type [1]	tyrosine phosphorylation of PST PIP forms in the presence of dominant negative PTP HSCF C-S (substrate trapping) [1]	levels of phosphotyrosine in mutant versus wild type PST PIP, densitometry ([1]; increasing v-Src plasmid)	in vivo association (coprecipitation) of PST PIP and PTP HSCF [3]
B1	hyperphosphorylated	enhanced tyrosine phosphorylation	predominantly co-localized with the cortical actin cytoskeleton	found in a complex with precipitated PTP HSCF	in vivo association of the proteins	–	–	–	–
B2	–	–	indistinguishable from the wild type protein	–	–	significantly more efficiently tyrosine phosphorylated	not hyperphosphorylated	2-3 fold	complete lack of in vivo association; also recorded: neither coprecipitated with PTP HSCF
